Reference: patent US20240166760A1 (UNIVERSITY OF PITTSBURGH OF THE COMMONWEALTH SYSTEM OF …, published 2024)

Assays:
[1] = molecular target: T1, Human IgG1 Fc-fused CEACAM5 A3B3 (residues 501-682) (human, UniProt P06731 501-682); experiment: SPR (BIAcore)
T1 construct: Expressed in Freestyle HEK cells and N-glycosylated; also called CEACAM5 A3B3-Fc; A3B3-Fc; not shown: human immunoglobulin 1 Fc region (hIgG1 Fc)
T1 sequence: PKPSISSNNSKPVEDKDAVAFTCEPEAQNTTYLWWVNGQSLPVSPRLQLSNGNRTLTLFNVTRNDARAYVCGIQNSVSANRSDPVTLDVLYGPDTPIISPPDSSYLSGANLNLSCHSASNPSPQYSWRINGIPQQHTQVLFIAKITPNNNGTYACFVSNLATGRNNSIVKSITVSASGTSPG

[2] = molecular target: T2, Fc-fused CEACAM5 A3B3 domain N580Q mutant (human, UniProt P06731 501-682); experiment: indirect ELISA
T2 construct: N-glycosylation site mutant of A3B3-Fc; not shown: human IgG1 Fc carrier and its junction to A3B3
T2 chain: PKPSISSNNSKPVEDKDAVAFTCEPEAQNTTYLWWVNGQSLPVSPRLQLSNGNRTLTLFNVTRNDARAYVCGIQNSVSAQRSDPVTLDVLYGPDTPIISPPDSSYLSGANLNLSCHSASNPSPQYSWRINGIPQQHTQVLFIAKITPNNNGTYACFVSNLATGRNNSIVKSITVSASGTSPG
Protocol: Binding and specificity of scFv, Fab, or IgG to CEACAM related proteins were analyzed through indirect ELISA. Briefly, Fc-fused CEACAM5 polypeptides, CEACAM6 polypeptides, extra-cellular domain of CEACAM5 (R&D systems, 4128-CM), CEACAM6 (R&D systems, 3934-CM), or cynomolgus CEACAM5 (Sino biological, 90891-C08H) was coated on a 96 well plate (Corning, 3690) at 200 ng/well (50 μL volume) in PBS for 2 hours at room temperature. Blocking was carried out with 3% BSA in PBS for overnight at 4° C. Next day, various concentration of scFv, Fab, or IgG was treated to antigen coated plates and incubated for 1 hour at room temperature. After washing three times, anti-FLAG mouse antibody (M2 clone)-HRP conjugated (Sigma, A8592, 1:3000 dilution) or anti-human kappa goat antibody-HRP conjugated (Invitrogen, A18853, 1:3000 dilution) was treated for binding detection. Same volume of TMB (Thermo, PI34028) was added as a substrate, and then enzymatic reaction was stopped by adding of 2N sulfonic acid. The monomeric Fc fused-CD16a (Fc γRIIIa), CD64 (Fc γRIa) and CD32 (Fc γRIIa) were obtained from Prof. Wei Li (University of Pittsburgh, PA) and used for Fc gamma receptor (FcγR) binding test. […]

[3] = molecular target: T3, Human IgG1 Fc-fused CEACAM5 A1B1 (residues 145-322) (human, UniProt P06731 145-322); experiment: indirect ELISA / BIAcore
T3 construct: also called CEACAM5 A1B1-Fc; A1B1 domains of CEACAM5; not shown: human immunoglobulin 1 Fc region (hIgG1 Fc)
T3 sequence: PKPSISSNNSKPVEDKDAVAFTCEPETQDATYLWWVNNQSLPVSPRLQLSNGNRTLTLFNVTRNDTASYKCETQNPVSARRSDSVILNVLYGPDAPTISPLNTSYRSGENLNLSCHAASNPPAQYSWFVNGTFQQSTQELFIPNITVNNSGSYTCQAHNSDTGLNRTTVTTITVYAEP

[4] = molecular target: T4, Human IgG1 Fc-fused CEACAM5 A2B2 (residues 323-500) (human, UniProt P06731 323-500); experiment: indirect ELISA / BIAcore
T4 construct: also called CEACAM5 A2B2-Fc; A2B2 domains of CEACAM5; not shown: human immunoglobulin 1 Fc region (hIgG1 Fc)
T4 chain: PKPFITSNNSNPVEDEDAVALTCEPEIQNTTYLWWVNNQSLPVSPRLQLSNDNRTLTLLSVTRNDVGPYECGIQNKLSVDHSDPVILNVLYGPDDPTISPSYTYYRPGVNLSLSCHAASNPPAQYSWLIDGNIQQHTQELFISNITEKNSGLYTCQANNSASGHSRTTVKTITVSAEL

[5] = molecular target: T1, Human IgG1 Fc-fused CEACAM5 A3B3 …; experiment: indirect ELISA, antigen coated on plate
Protocol: Binding and specificity of scFv, Fab, or IgG to CEACAM related proteins were analyzed through indirect ELISA. Briefly, Fc-fused CEACAM5 polypeptides, CEACAM6 polypeptides, extra-cellular domain of CEACAM5 (R&D systems, 4128-CM), CEACAM6 (R&D systems, 3934-CM), or cynomolgus CEACAM5 (Sino biological, 90891-C08H) was coated on a 96 well plate (Corning, 3690) at 200 ng/well (50 μL volume) in PBS for 2 hours at room temperature. Blocking was carried out with 3% BSA in PBS for overnight at 4° C. Next day, various concentration of scFv, Fab, or IgG was treated to antigen coated plates and incubated for 1 hour at room temperature. After washing three times, anti-FLAG mouse antibody (M2 clone)-HRP conjugated (Sigma, A8592, 1:3000 dilution) or anti-human kappa goat antibody-HRP conjugated (Invitrogen, A18853, 1:3000 dilution) was treated for binding detection. Same volume of TMB (Thermo, PI34028) was added as a substrate, and then enzymatic reaction was stopped by adding of 2N sulfonic acid. The monomeric Fc fused-CD16a (Fc γRIIIa), CD64 (Fc γRIa) and CD32 (Fc γRIIa) were obtained from Prof. Wei Li (University of Pittsburgh, PA) and used for Fc gamma receptor (FcγR) binding test.

[6] = molecular target: T5, human CEACAM1 on Freestyle 293F cells (human, UniProt P13688 35-526); experiment: flow cytometry on transfected HEK293F cells
T5 construct: whole, on cells; Gene carries a FLAG-tag at the C-terminal; Transiently expressed
T5 sequence (looked up): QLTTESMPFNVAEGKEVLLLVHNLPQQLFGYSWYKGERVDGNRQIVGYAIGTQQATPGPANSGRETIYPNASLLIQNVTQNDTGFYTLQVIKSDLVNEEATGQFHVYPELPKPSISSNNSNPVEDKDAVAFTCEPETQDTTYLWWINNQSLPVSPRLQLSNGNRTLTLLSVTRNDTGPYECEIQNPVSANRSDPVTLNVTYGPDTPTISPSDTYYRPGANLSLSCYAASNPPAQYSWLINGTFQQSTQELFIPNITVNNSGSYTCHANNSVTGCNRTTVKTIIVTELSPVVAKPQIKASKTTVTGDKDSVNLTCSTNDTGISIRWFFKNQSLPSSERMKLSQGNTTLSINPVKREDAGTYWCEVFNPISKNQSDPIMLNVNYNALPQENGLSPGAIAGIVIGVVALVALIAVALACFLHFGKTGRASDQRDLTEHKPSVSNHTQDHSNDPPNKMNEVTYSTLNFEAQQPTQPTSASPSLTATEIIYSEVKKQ
Protocol: (§1) To determine the cell surface expression levels of CEACAM5 or CEACAM family proteins, the cells were stained with PE-conjugated anti-CEACAM5 IgG1 (Miltenyi Biotec, 130-114-217) or PE-conjugated anti-FLAG mouse antibody (Miltenyi Biotec, 130-101-576). To confirm cell surface binding of selected antibodies, cells were treated with a hIgG1 having the CDRs of Clone #1, a hIgG1 having the CDRs of Clone #2, or the Clone #1 Fab for 1 hour at 4° C. and then stained with Alexa647-conjugated goat anti-human IgG (Invitrogen, A21445) or FITC conjugated-goat anti-human kappa light chain (Invitrogen, A18854) for 0.5 hours at 4° C. For the internalization assays, cells (1×10⁵ cells/well in 96-well plate) were treated with Alexa488-labeled antibodies for durations between 0 and 30 hours. After incubation of antibodies, cells were washed with cold PBS, and then the remained cell surface binding antibodies were analyzed using Alexa488 fluorescence. For CAR expression on anti-CEACAM5 CAR-T cells, CD4⁺ T or CD8⁺ T cells were gated using APC-conjugated anti-human CD4 antibody (ebioscience, 17-0049-42) and eFluor450-conjugated anti-human CD8 antibody (ebioscience, 48-0088-42), and CAR expression was examined using FITC-labeled recombinant Protein L (Acrobiosystems, RPL-PF141).

[7] = molecular target: T6, human CEACAM6 on Freestyle 293F cells (human, UniProt P40199 35-320); experiment: flow cytometry on transfected HEK293F cells
T6 construct: whole, on cells; Gene carries a FLAG-tag at the C-terminal; Transiently expressed; also called CD66c
T6 sequence (looked up): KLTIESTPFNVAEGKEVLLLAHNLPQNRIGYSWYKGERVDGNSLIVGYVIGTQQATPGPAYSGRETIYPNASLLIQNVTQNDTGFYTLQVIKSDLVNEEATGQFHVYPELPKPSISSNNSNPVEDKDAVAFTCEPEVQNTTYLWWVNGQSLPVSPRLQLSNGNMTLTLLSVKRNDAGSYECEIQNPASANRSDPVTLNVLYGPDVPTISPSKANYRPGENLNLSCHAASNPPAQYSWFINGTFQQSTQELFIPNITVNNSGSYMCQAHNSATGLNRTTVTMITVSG
Protocol: as §1

B1: Clone #1 Fab (1G9 Fab) (Fab, V domains shown)
VH: QVQLVESGGGLVKPGGSLRLSCAASGFTFSDYYMSWIRQAPGKGLEWVSYISSSGSTIYYADSVKGRFTISRDNAKNSLYLQMNSLRAEDTAVYYCARIGRYSYGLRSYYYYGMDVWGQGTTVTVSS
VL: DIQMTQSPSSLSASVGDRVTITCRASQSISSYLNWYQQKPGKAPKLLIYAASSLQSGVPSRFSGSGSGTDFTLTISSLQPEDFGVYYCMQALQTPVTFGQGTRLEIKR
notes: Human Fab from a phage library (IGHV3-11 / IGKV1-39 frameworks), made in E. coli and purified on Ni-NTA
Kd [1]: 3 nM
binding result [2]: binds
binding result [3]: no binding
binding result [4]: no binding
EC50 [5]: ~6 nM
binding result [6]: no binding
binding result [7]: no binding
